From patent US20040167074A1, “Therapeutic applications of mFLINT polypeptides” (priority 1998, published 2004)
One block for each molecule: values may come before it.

Tests used:
[1] = molecular target: murine FasL of anti-CD3-stimulated mouse T cell hybridoma cells (LTT cells) (mouse) (UniProt P41047)
[2] = molecular target: murine FasL of anti-CD3-stimulated mouse T cell hybridoma cells (LTT cells) (mouse) (UniProt P41047); remark: listed apart in the source
[3] = tested on: bone marrow cells; assay: Viable cell count of bone marrow cells from 5-FU treated mice after cytokine expansion; assay type: cell-based, mouse; settings: FIG. 10; 3 days with SCF and IL-6; mFLINT 1 ug/ml, anti-FasL 1 ug/ml, FasL 0.15 ug/ml; control 3,300
From the text: Following a 3 day in vitro expansion period with cytokines, viable cells are counted and used to set up a CFU assay. If mFLINT or anti-FasL antibody protects progenitor cells from apoptosis, one would expect a greater number of colonies in these groups for the CFU assay. […] The values were: control cells: 3,300; FasL-treated cells: 3,000; anti-FasL-treated cells: 4,200; mFLINT-treated cells: 4,900.

[4] = tested on: mrecFas; assay: Baseline Fas-FasLigand interaction ELISA; assay type: binding; settings: mrecFas 100 ng adsorbed
Procedure: First a baseline experiment was done for the Fas-FasLigand interaction in vitro. Unless otherwise indicated, all washing steps use TBST (Tris Buffer Saline with Tween 20 from SIGMA) and were done 3 to 6 times.
mrecFas (100 ng) was adsorbed on to ELISA plate. Then the plate was is blocked by TBST plus 0.1% Gelatine. […] After washing the plate 6 times, anti-mouse-Abs-HRP (3000 dilution, Bio-Rad) was added to the wells. After washings three times, visualization enzymatic reaction using ABTS as a substrate was performed. Unless otherwise noted, an ELISA reader commercialized by Molecular Devices Corp. (Menlo Park, Calif.) was used.

[5] = tested on: Jurkat cells; assay: Recombinant FasL induced Jurkat cell apoptosis (Annexin V/PI, FACS); assay type: cell-based; settings: Jurkat + inducer alone 200 ng/ml, overnight
Procedure: One milliliter of 1×10^6 cell/ml was added into each well of 24 well tissue culture plate and treated with following reagents: soluble Fas L (200 ng), Fas L plus 1 ug mFLINT, Fas L plus 1 ug OPG2-Fc, Trail (200 ng), Trail plus 1 ug mFLINT. Cells were incubated overnight at 37° C. and then stained with Annexin V and PI.

[6] = molecular target: hFasLigand (Flag-tagged) (human) (UniProt P48023); assay: competition ELISA: mrecFas 100 ng adsorbed, hFasLigand-Flag 30 ng, FLINT 5 ng; signal is FasL bound to Fas
[7] = molecular target: hFasLigand (Flag-tagged) (human) (UniProt P48023); assay: competition ELISA: mrecFas 100 ng adsorbed, hFasLigand-Flag 30 ng, FLINT 50 ng; signal is FasL bound to Fas
[8] = molecular target: hFasLigand (Flag-tagged) (human) (UniProt P48023); assay: competition ELISA: mrecFas 100 ng adsorbed, hFasLigand-Flag 30 ng, FLINT 10 ng; signal is FasL bound to Fas
[9] = molecular target: FasL expressed by anti-CD3-activated Jurkat cells
[10] = molecular target: soluble Fas L (recombinant FasL)
[11] = molecular target: hFasLigand (Flag-tagged) (human) (UniProt P48023); assay: competition ELISA: mrecFas 100 ng adsorbed, hFasLigand-Flag 30 ng, FLINT 500 ng; signal is FasL bound to Fas
[12] = molecular target: FasL expressed by anti-CD3-activated Jurkat cells; remark: listed apart in the source
[13] = molecular target: hFasLigand (Flag-tagged) (human) (UniProt P48023); assay: competition ELISA: mrecFas 100 ng adsorbed, hFasLigand-Flag 30 ng, FLINT 1 ng; signal is FasL bound to Fas
[14] = molecular target: hFasLigand (Flag-tagged) (human) (UniProt P48023); assay: competition ELISA: mrecFas 100 ng adsorbed, hFasLigand-Flag 30 ng, FLINT 100 ng; signal is FasL bound to Fas
[15] = mouse, in vivo
From the text: These animals are also useful in further delineating useful treatment protocols for the conditions set out above. Transgene construction. […] The 5' primer, [NT], a BglII restriction site and the 3' primer, [NT], contained an SpeI restriction enzyme site. These were used to amplify the entire FLINT and FLAG coding region. The amplified 1.1 kb fragment was ligated into the multiple cloning site of plasmid […]2 generating plasmid […] (6.7 kb). See Fox et al, Eur. J. Pharmacol. 308:195 (1996). The FLINT gene fragment was excised from […] by BglII and SpeI digestion and gel-purified. This fragment then was blunted with Klenow enzyme and ligated into the Klenow-blunted MluI site of plasmid pLIV.7, provided by John Taylor of the J. David Gladstone Institutes. See Fan et al., Proc. Nat'l Acad. Sci. 91:8724 (1994). Resultant plasmid […] also contains the apo E gene promoter/5' flanking region and an hepatic enhancer sequences called the “hepatic control region” (HCR). […] Broad tissue expression was detected in line 6494 progeny by Northern blot, RT-PCR (TaqMan), Western blot and immunohistochemical analysis and was highest in the liver and kidney. High levels of FLINT protein were detected in the circulation of line 6494 mice by ELISA assay; founder level=490 ng/ml; progeny levels ranged from 285-1360 ng/ml (n=6). No endogenous FLINT was detected by these analyses.

Sequence of murine FasL of anti-CD3-stimulated mouse T cell hybridoma cells (LTT cells) (mouse) (P41047 whole entry): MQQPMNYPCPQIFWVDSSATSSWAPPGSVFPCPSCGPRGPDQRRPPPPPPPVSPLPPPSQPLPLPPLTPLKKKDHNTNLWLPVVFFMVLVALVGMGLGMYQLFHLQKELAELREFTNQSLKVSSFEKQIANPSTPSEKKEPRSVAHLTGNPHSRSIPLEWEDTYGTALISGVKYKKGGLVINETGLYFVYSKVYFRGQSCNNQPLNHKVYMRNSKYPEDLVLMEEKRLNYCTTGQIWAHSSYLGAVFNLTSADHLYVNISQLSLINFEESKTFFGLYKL

SFas % Annexin V Positive [2]: 56.7%
B1: solubleFas (sFas)(FasFc, mouse) (Fc fusion)
chain: QGTNSISESLKLRRRVRETDKNCSEGLYQGGPFCCQPCQPGKKKVEDCKMNGGTPTCAPCTEGKEYMDKNHYADKCRRCTLCDEEHGLEVETNCTLTQNTKCKCKPDFYCDSPGCEHCVRCASCEHGTLEPCTATSNTNCRKQSPRNR
MTS cytotoxicity assay, absorbance at 490 nm (absorbance at 490 nm) [1]: 1.46

OD, 405 nM [6]: 0.36 OD, 405 nM
OD, 405 nM [7]: 0.28 OD, 405 nM
OD, 405 nM [8]: 0.36 OD, 405 nM
apoptosis of Jurkat cells (dose series of mFLINT) [9]: 14.7
apoptosis of Jurkat cells, Annexin V and PI (FACS) [10]: 3.32
OD, 405 nM [11]: 0.06 OD, 405 nM
apoptosis of Jurkat cells, positive staining with Annexin V (FACS) [12]: 18.7
OD, 405 nM [13]: 0.36 OD, 405 nM
OD, 405 nM [14]: 0.18 OD, 405 nM
B3: mFLINT (mature human FLINT, non-Flagged, made according to Examples 8 and 9) (receptor)
chain: VAETPTYPWRDAETGERLVCAQCPPGTFVQRPCRRDSPTTCGPCPPRHYTQFWNYLERCRYCNVLCGEREEEARACHATHNRACRCRTGFFAHAGFCLEHASCPPGAGVIAPGTPSQNTQCQPCPPGTFSASSSSSEQCQPHRNCTALGLALNVPGSSSHDTLCTSCTGFPLSTRVPGAEECERAVIDFVAFQDISIKRLQRLLQALEAPEGWGPTPRAGRAALQLKLRRRLTELLGAQDGALLVRLLQALRVARMPGLERSVRERFLPVH
modifications: glycosylated

The next lines start with the molecule.

B2: FasL: Fas ligand; hFasLigand (Flag-tagged) in ELISA, soluble Fas L in cell assays (protein)
chain: QLFHLQKELAELRESTSQMHTASSLEKQIGHPSPPPEKKELRKVAHLTGKSNSRSMPLEWEDTYGIVLLSGVKYKKGGLVINETGLYFVYSKVYFRGQSCNNLPLSHKVYMRNSKYPQDLVMMEGKMMSYCTTGQMWARSSYLGAVFNLTSADHLYVNVSELSLVNFEESQTFFGLYKL
bone marrow cell count [3]: 3,000 ×1000
OD, 405 nM ([4]; FasL 1 ng): .1
OD, 405 nM ([4]; FasL 5 ng): .2
OD, 405 nM ([4]; FasL 10 ng): .3
OD, 405 nM ([4]; FasL 50 ng): .7
OD, 405 nM ([4]; FasL 100 ng): 1.2
OD, 405 nM ([4]; FasL 500 ng): 1.6
Cell apoptosis (Annexin V and PI, FACS) [5]: 67.39

B4: FLINT protein: FLINT-FLAG expressed from Apo E promoter/HCR transgene in line 6494 transgenic mice (protein)
chain: B3 chain
modifications: glycosylated
notes: FLINT-FLAG expressed from Apo E promoter/HCR transgene in line 6494 transgenic mice
histopathologic findings [15]: No significant histopathologic findings
observable abnormalities [15]: no observable abnormalities
